In the experiment the target is biotinylated His-Avi-TEAD (194-411) (UniProt P28347). Put plainly: SSM screen, enrichment after two rounds of sorting.
The molecule GSPDEYIERAKECCKLGDIQCCLRYFEESGDPNVMLICLFCP (designed binder) [K14L variant of SEQ ID NO: 1] came in with an enrichment score of -0.89.

In the case of GSPDEYIERAKECCKWGDIQCCLRYFEESGDPNVMLICLFCP (designed binder) [K14W variant of SEQ ID NO: 1], the enrichment score was -2.64. The same measure for GSPDEYIERAKDCCKKGDIQCCLRYFEESGDPNVMLICLFCP (designed binder) [E10D variant of SEQ ID NO: 1]: -0.89; for GSPDEYIERAKECCKKVDIQCCLRYFEESGDPNVMLICLFCP (designed binder) [G15V variant of SEQ ID NO: 1]: 0.99.

The molecule GSPDEYIERAKECCKKGDIYCCLRYFEESGDPNVMLICLFCP (designed binder) [Q18Y variant of SEQ ID NO: 1] returned an enrichment score of -8.35. On to GSEDEYIERAKECCKKGDIQCCLRYFEESGDPNVMLICLFCP (designed binder) [P01E variant of SEQ ID NO: 1], for which the enrichment score was 1.12. As to GSPDEYIERAKECCKKGDIWCCLRYFEESGDPNVMLICLFCP (designed binder) [Q18W variant of SEQ ID NO: 1], the enrichment score was -11.1. Molecule GSPDEYIERAKECCKKGDIPCCLRYFEESGDPNVMLICLFCP (designed binder) [Q18P variant of SEQ ID NO: 1] showed an enrichment score of 0.69. In turn, GSPDEYIGRAKECCKKGDIQCCLRYFEESGDPNVMLICLFCP (designed binder) [E06G variant of SEQ ID NO: 1] displayed an enrichment score of -1.15. With GSPDEYIDRAKECCKKGDIQCCLRYFEESGDPNVMLICLFCP (designed binder) [E06D variant of SEQ ID NO: 1], the enrichment score is -0.6. Turning to GSPEEYIERAKECCKKGDIQCCLRYFEESGDPNVMLICLFCP (designed binder) [D02E variant of SEQ ID NO: 1], the enrichment score amounted to 1.16. The figure for GSPDEYIERGKECCKKGDIQCCLRYFEESGDPNVMLICLFCP (designed binder) [A08G variant of SEQ ID NO: 1] is -4.11; for GSPDGYIERAKECCKKGDIQCCLRYFEESGDPNVMLICLFCP (designed binder) [E03G variant of SEQ ID NO: 1] it is -0.62; for GSPDEYIERAKECCKKGDIVCCLRYFEESGDPNVMLICLFCP (designed binder) [Q18V variant of SEQ ID NO: 1] it is -0.77. As for GSPDEYIERAKECCKKFDIQCCLRYFEESGDPNVMLICLFCP (designed binder) [G15F variant of SEQ ID NO: 1], the enrichment score was -1.98. For GSPDEYIERADECCKKGDIQCCLRYFEESGDPNVMLICLFCP (designed binder) [K09D variant of SEQ ID NO: 1], the enrichment score was -0.58. The same measure for GSPDEGIERAKECCKKGDIQCCLRYFEESGDPNVMLICLFCP (designed binder) [Y04G variant of SEQ ID NO: 1]: -2.21; for GSPDEYIERAKECCKKGWIQCCLRYFEESGDPNVMLICLFCP (designed binder) [D16W variant of SEQ ID NO: 1]: -2.3. GSPDEYIERAKECCKPGDIQCCLRYFEESGDPNVMLICLFCP (designed binder) [K14P variant of SEQ ID NO: 1] yielded an enrichment score of -10.6.

As for GSPDDYIERAKECCKKGDIQCCLRYFEESGDPNVMLICLFCP (designed binder) [E03D variant of SEQ ID NO: 1], the enrichment score is 0.8. GSPDEYIERAKGCCKKGDIQCCLRYFEESGDPNVMLICLFCP (designed binder) [E10G variant of SEQ ID NO: 1] showed an enrichment score of -0.44. GSPDEYIERAKECCKKGDILCCLRYFEESGDPNVMLICLFCP (designed binder) [Q18L variant of SEQ ID NO: 1] came in with an enrichment score of -4.91. The same measure for GSPDEYIERAKECCKKGDIFCCLRYFEESGDPNVMLICLFCP (designed binder) [Q18F variant of SEQ ID NO: 1]: -4.21.

For GSPDEYIERAKECCKKGYIQCCLRYFEESGDPNVMLICLFCP (designed binder) [D16Y variant of SEQ ID NO: 1], the enrichment score is -3.84. GSPDEYIERAKECCKKGDPQCCLRYFEESGDPNVMLICLFCP (designed binder) [I17P variant of SEQ ID NO: 1] yielded an enrichment score of -2.41. GSPDEYIERAKECCKVGDIQCCLRYFEESGDPNVMLICLFCP (designed binder) [K14V variant of SEQ ID NO: 1]: the enrichment score was 0.08. The same measure for GSPDEYIERAKECCKYGDIQCCLRYFEESGDPNVMLICLFCP (designed binder) [K14Y variant of SEQ ID NO: 1]: -0.68. GSPDEYIERAKECCKKGVIQCCLRYFEESGDPNVMLICLFCP (designed binder) [D16V variant of SEQ ID NO: 1]: the enrichment score is -7.81. GSPGEYIERAKECCKKGDIQCCLRYFEESGDPNVMLICLFCP (designed binder) [D02G variant of SEQ ID NO: 1] displayed an enrichment score of -0.32. Regarding GSPDEYDERAKECCKKGDIQCCLRYFEESGDPNVMLICLFCP (designed binder) [I05D variant of SEQ ID NO: 1], the enrichment score was -3.47.

GSPDEYIERAKECCWKGDIQCCLRYFEESGDPNVMLICLFCP (designed binder) [K13W variant of SEQ ID NO: 1] came in with an enrichment score of -2.99. As for GSDDEYIERAKECCKKGDIQCCLRYFEESGDPNVMLICLFCP (designed binder) [P01D variant of SEQ ID NO: 1], the enrichment score is -0.65. For the molecule GSPDEYIERAKECCKKGFIQCCLRYFEESGDPNVMLICLFCP (designed binder) [D16F variant of SEQ ID NO: 1], the enrichment score is -1.86. The figure for GSPDEYIERAKECCYKGDIQCCLRYFEESGDPNVMLICLFCP (designed binder) [K13Y variant of SEQ ID NO: 1] is -1.29; for GSPDEYIERAKECCKKGPIQCCLRYFEESGDPNVMLICLFCP (designed binder) [D16P variant of SEQ ID NO: 1] it is -4.62; for GSPDEYIERAGECCKKGDIQCCLRYFEESGDPNVMLICLFCP (designed binder) [K09G variant of SEQ ID NO: 1] it is -0.48.

For GSPDEYIERAKECCKKGDWQCCLRYFEESGDPNVMLICLFCP (designed binder) [I17W variant of SEQ ID NO: 1], the enrichment score is -10.4. The same measure for GSPDEYIERAKECCFKGDIQCCLRYFEESGDPNVMLICLFCP (designed binder) [K13F variant of SEQ ID NO: 1]: -1.14; for GSPDEYIERAKECCKKWDIQCCLRYFEESGDPNVMLICLFCP (designed binder) [G15W variant of SEQ ID NO: 1]: -4.75; for GSPDEYIEDAKECCKKGDIQCCLRYFEESGDPNVMLICLFCP (designed binder) [R07D variant of SEQ ID NO: 1]: -2.25. GSPDEDIERAKECCKKGDIQCCLRYFEESGDPNVMLICLFCP (designed binder) [Y04D variant of SEQ ID NO: 1] yielded an enrichment score of -1.79.

For GSPDEYIERAKECCPKGDIQCCLRYFEESGDPNVMLICLFCP (designed binder) [K13P variant of SEQ ID NO: 1], the enrichment score was -10.4. The figure for GSPDEYIERAKECCKKGDLQCCLRYFEESGDPNVMLICLFCP (designed binder) [I17L variant of SEQ ID NO: 1] is 1.28; for GSPDEYIERAKECCKKGDVQCCLRYFEESGDPNVMLICLFCP (designed binder) [I17V variant of SEQ ID NO: 1] it is 4.17; for GSPDEYIERAKECCKKGDYQCCLRYFEESGDPNVMLICLFCP (designed binder) [I17Y variant of SEQ ID NO: 1] it is -9.48. The figure for GSPDEYIERDKECCKKGDIQCCLRYFEESGDPNVMLICLFCP (designed binder) [A08D variant of SEQ ID NO: 1] is -4.17; for GSPDEYIERAKECCKFGDIQCCLRYFEESGDPNVMLICLFCP (designed binder) [K14F variant of SEQ ID NO: 1] it is -0.5. GSPDEYIERAKECCKKGDFQCCLRYFEESGDPNVMLICLFCP (designed binder) [I17F variant of SEQ ID NO: 1] showed an enrichment score of -3.5. For the molecule GSPDEYIERAKECCKKYDIQCCLRYFEESGDPNVMLICLFCP (designed binder) [G15Y variant of SEQ ID NO: 1], the enrichment score was -1.14.

Regarding GSPDEYIERAKECCKKLDIQCCLRYFEESGDPNVMLICLFCP (designed binder) [G15L variant of SEQ ID NO: 1], the enrichment score was -0.59. As for GSPDEEIERAKECCKKGDIQCCLRYFEESGDPNVMLICLFCP (designed binder) [Y04E variant of SEQ ID NO: 1], the enrichment score was -6.52.

Turning to GSPDEYIERAKECCVKGDIQCCLRYFEESGDPNVMLICLFCP (designed binder) [K13V variant of SEQ ID NO: 1], the enrichment score was -1.65. Regarding GSPDEYIEGAKECCKKGDIQCCLRYFEESGDPNVMLICLFCP (designed binder) [R07G variant of SEQ ID NO: 1], the enrichment score is 1.31.

GSGDEYIERAKECCKKGDIQCCLRYFEESGDPNVMLICLFCP (designed binder) [P01G variant of SEQ ID NO: 1] had an enrichment score of 1.7. Regarding GSPDEYIERAKECCKKPDIQCCLRYFEESGDPNVMLICLFCP (designed binder) [G15P variant of SEQ ID NO: 1], the enrichment score was -1.25. In turn, GSPDEYIERAKECCKKGLIQCCLRYFEESGDPNVMLICLFCP (designed binder) [D16L variant of SEQ ID NO: 1] displayed an enrichment score of -8.99. GSPDEYGERAKECCKKGDIQCCLRYFEESGDPNVMLICLFCP (designed binder) [I05G variant of SEQ ID NO: 1] came in with an enrichment score of -3.97.

Values taken from patent US20230151068A1.
